The record followed here is US20090307790.

For data set [1], the target named is Rac1, produced as GST-fusion protein in E. coli BL21 [GST: P08515].
Data set [2] deals with RhoA, produced as GST-fusion protein in E. coli BL21 [GST: P08515].
The target in data set [3] is cdc42, produced as GST-fusion protein in E. coli BL21 [GST: P08515].

B1: catalytic domain of wild type Tagap1, produced as GST-fusion protein in E. coli BL21 (protein)
chain: QPLSIICGENDTLPRPIQDILTILCLKGPSTEGIFRKAASEKARKELKEGLNCGVSVNLKQLPVHLLAVVFKDFLRGIPLKLLSCDLFEDWMGALEKPTEEDRIEALKQVAGGLPRPNLLLLRHLLYVLHLISKNAEVNKMDSSNLAICIGPNMLTLKNDQSLSFQAQKDLNNKVKILVEFLIDNCFEIF
Turning to B1, the “GTPase activity of Rac1 (in vitro GAP assay)” value in data set [1] was “hardly (Rac1) stimulated”. Moreover, in data set [2], the “GTPase activity of RhoA (GAP-activity assay, FIG. 2e)” value is recorded as “Tagap1 enhances the GTPase activity of RhoA” and the “GTPase activity of RhoA (in vitro GAP assay)” value is “the GTPase activity of RhoA was strongly enhanced by the GAP domain of Tagap1”. Besides, the “GTPase activity of Cdc42 (in vitro GAP assay)” value in data set [3] was “only mildly (Cdc42) ... stimulated”.
